# Results as given in patent US7132274B2, “Method for identifying modulators of CLK-1 and UbiF activity” (priority 2003, dated 2006).
# Changes are numbered by the printed parent chain. Names may count otherwise.
# B1: CDB 720: C. elegans CLK-1 variant, mutation E30A (protein, UniProt P48376 9-187, looked up, variant E30A)
# NADPH-dependent …: AHTAASRQALIEKIIRVDHAGALGADRIYAGQLAVLQGSSVGSVIKKMWDEEKEHLDTMERLAAKHNVPHTVFSPVFSVAAYALGVGSALLGKEGAMACTIAVEELIGQHYNDQLKELLADDPETHKELLKILTRLRDEELHHHDTGVEHDGMKAPAYSALKWIIQTGCKGAIAIAEKI
# B2: CDB 719: C. elegans CLK-1 variant, mutation H63A (protein, UniProt P48376 9-187, looked up, variant H63A)
# NADPH-dependent …: B1 NADPH-dependent … with A22E, H55A
# B3: CDB 721: C. elegans CLK-1 variant, mutation Y37A (protein, UniProt P48376 9-187, looked up, variant Y37A)
# NADPH-dependent …: B1 NADPH-dependent … with A22E, Y29A
# B4: CDB 716: C. elegans CLK-1 variant, mutation H118A (protein, UniProt P48376 9-187, looked up, variant H118A)
# NADPH-dependent …: B1 NADPH-dependent … with A22E, H110A
# B5: Saccharomyces pombe coq7: yeast orthologue of clk-1 (protein, UniProt O74826 28-216, looked up)
# 5-demethoxyubiquinone …: ISMGRKELSEKDSNILDSVIRVDQAGELGANQIYKGQHFILQFTDPKVAPTIQHMWDQEKYHLATFDNYVLKNRVRPTFLRPFWDIAGFALGAGTALLGTKAAMACTEAVETVIGGHYNDQLRETAHLENKAPEFKEIRSHLAEFRDDELEHLNTAVEGWNAKEAPAHALLTNAIQMGCKAAIWMCKRF
# Legend:
# [1] = test system: E. coli JF496 (ubiF411); test: JF496 complementation (growth rescue) assay; format: cell-based; settings: C. elegans CLK-1 variants expressed in JF496; growth rate relative to wild type CLK-1
# From the text: JF496 is useful for complementation assays using eukaryotic clk-1. As with all other ubi mutants, JF496 has a weak growth in liquid culture, and cannot use succinate as a unique carbon source. These characteristics were used to develop a gain-of-function assay, where JF496 was transformed with a eukaryotic clk-1 (here from C. elegans) and then wild-type growth was identified. Transgenic E. coli ubiF (Kwon et al., 2000 FEMS Microbiol Lett, 186, 157–161), and clk-1 from proteobacteria (Stenmark et al., 2001 J Biol Chem, 276, 33297–33300) have been tested in JF496.
# Growth conditions—For complementation assays, plasmids are freshly transformed by electroporation into E. coli JF496 ubiF(DE3) and grown overnight at 37° C. in 5 mL LB with 50 μg/mL ampicillin. The cultures are diluted 1/10 and OD600 measured. A bacterial volume corresponding to an OD600 of 0.03 in 5 mL is taken, centrifuged and resuspended in 100 μl of M9 medium. It is then added into 5 mL M9 containing 1 mM MgSO4, 20 μM CaCl2, 0.5 μg/mL thiamine, 0.12% casamino acids, 40 μg/mL D-L-methionine, 100 μg/mL L-asparagine, trace metals and 50 μg/mL ampicillin. This medium is supplemented with 0.5% glucose or 0.5% succinate. E. coli JF496 is grown at 37° C. for 8 hours. Samples (700-μL) are taken at 2-hour intervals and the OD600 is measured in order to determine the growth rate.
# Growth conditions—as described above in Section 6.1
# A selection of CLK-1 variants were constructed by site-directed mutagenesis and cloned into the JF496 system to assess their enzymatic activity relative to the wild type. The respective strains of JF496-clk-1 variants were cultured as described and the growth rate of each were measured. The results as shown in Table 4 indicate that certain residues and regions are not tolerant of amino acid substitution (amino acid substitution is indicated by one-letter codes).
# [2] = test system: E. coli JF496 (ubiF411); settings: yeast orthologue of clk-1; cited from earlier work
Molecule,Activity in JF496 system [1],complementation of UbiF-deficiency in JF496 bacteria [2]
B1,Inactive,–
B2,Inactive,–
B3,Active,–
B4,Inactive,–
B5,–,cannot complement
